{
  "source": "patent US20130136748A1",
  "about": "(Ablynx, published 2013)",
  "key": {"[1]": {"biological_target": "T1, human HER3-Fc (R&D Systems, 348-RB) (human, UniProt P21860 20-643)", "T1 construct": "Bought; also called hHER3-Fc; Fc-HER3; Fc part of the bought chimera not given, not described", "test": "HRG blocking alphascreen"}, "[2]": {"biological_target": "T1, human HER3-Fc (R&D Systems, 348-RB)", "test": "HRG competition alphascreen"}, "hHER3 full length [3]": {"biological_target": "T2, hHER3 full length (human, UniProt P21860 20-1342)", "test": "cell-based or functional assay"}, "hHER3 full length [4]": {"biological_target": "T2, hHER3 full length", "test": "cell-based or functional assay", "remark": "listed apart in the source"}, "hHER3 full length [5]": {"biological_target": "T2, hHER3 full length", "test": "cell-based or functional assay", "remark": "listed apart in the source"}, "[6]": {"biological_target": "T3, hHER3 ECD (human HER3 extracellular domain) (human, UniProt P21860 20-643)", "T3 construct": "also called recombinant HER3-ECD", "test": "ELISA, coated hHER3-ECD"}, "[7]": {"biological_target": "T4, cHER3ECD (Maccaca fascicularis HER3 extracellular domain) (Macaca fascicularis, UniProt P21860 20-643 (human entry))", "T4 construct": "also called cyno HER3ECD; cyno HER3-ECD", "T4 chain": "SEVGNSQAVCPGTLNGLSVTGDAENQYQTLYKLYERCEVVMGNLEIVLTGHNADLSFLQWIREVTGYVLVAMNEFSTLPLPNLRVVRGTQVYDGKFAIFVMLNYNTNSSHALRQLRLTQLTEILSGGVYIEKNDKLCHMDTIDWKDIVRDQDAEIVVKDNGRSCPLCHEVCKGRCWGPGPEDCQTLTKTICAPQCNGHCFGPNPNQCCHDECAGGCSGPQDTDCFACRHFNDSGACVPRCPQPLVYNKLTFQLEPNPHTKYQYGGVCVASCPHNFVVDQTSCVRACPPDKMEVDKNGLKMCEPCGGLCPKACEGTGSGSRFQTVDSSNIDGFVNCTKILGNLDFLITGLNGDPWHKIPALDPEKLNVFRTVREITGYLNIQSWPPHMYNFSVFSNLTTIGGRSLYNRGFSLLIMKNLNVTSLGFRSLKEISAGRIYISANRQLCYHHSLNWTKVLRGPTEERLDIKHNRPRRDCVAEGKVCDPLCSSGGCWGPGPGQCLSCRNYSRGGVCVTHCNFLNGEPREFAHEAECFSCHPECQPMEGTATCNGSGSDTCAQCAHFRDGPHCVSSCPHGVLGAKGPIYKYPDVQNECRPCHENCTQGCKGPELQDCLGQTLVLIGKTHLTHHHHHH", "test": "ELISA, coated cHER3-ECD"}, "[8]": {"biological_target": "T3, hHER3 ECD (human HER3 extracellular …)", "test": "SPR off rate on HER3-ECD"}, "[9]": {"biological_target": "T1, human HER3-Fc (R&D Systems, 348-RB)", "test": "HRG competition alphascreen", "remark": "listed apart in the source"}, "[10]": {"biological_target": "T1, human HER3-Fc (R&D Systems, 348-RB)", "test": "34C07 competition alphascreen"}, "hHER3 full length [11]": {"biological_target": "T2, hHER3 full length", "test": "FACS, 400 nM, competitor 04C07-biotin"}, "hHER3 full length [12]": {"biological_target": "T2, hHER3 full length", "test": "FACS, 400 nM, competitor 04F10-biotin"}, "hHER3 full length [13]": {"biological_target": "T2, hHER3 full length", "test": "FACS, 400 nM, competitor 17C08-biotin"}, "hHER3 full length [14]": {"biological_target": "T2, hHER3 full length", "test": "FACS, 400 nM, competitor 18E08-biotin"}, "hHER3 full length [15]": {"biological_target": "T2, hHER3 full length", "test": "FACS, 400 nM, competitor 21B02-biotin"}, "hHER3 full length [16]": {"biological_target": "T2, hHER3 full length", "test": "FACS, 400 nM, competitor 23F05-biotin"}, "[17]": {"biological_target": "T3, hHER3 ECD (human HER3 extracellular …)", "test": "off rate on recombinant HER3-ECD, periplasmic extract"}, "[18]": {"biological_target": "T1, human HER3-Fc (R&D Systems, 348-RB)", "test": "SPR, HER3-Fc captured; heterogenous curve, main interaction (84%)"}},
  "note": "Values joined by “and” are separate entries in the source; they are usually repeats but may differ in a detail not shown here. Equal values may be shown once.",
  "data": [
    {"binder": "HER3MS00045 (VHH, 04C07 basic + A46E + L93A; also called HER3MS0045) VHH: EVQLVESGGGLVQPGGSLRLSCAASGFTFSSYPMSWVRQAPGKGPEWVSTVSPGGITTSYADSVKGRFTISRDNSKNTLYLQMNSLRPEDTAVYYCARDLNNRGQGTLVTVSS", "values": [
      {"measurement": "fold lower potency than parental 04C07", "setting": "[1]", "value": 18, "unit": "fold"},
      {"measurement": "IC50", "setting": "[2]", "value": 4.91, "unit": "nM"}
    ]},
    {"binder": "34C07 (VHH, c-myc, His6-tagged form as expressed; also called 34C7; HER3MS34C07) VHH: EVQLVESGGGLVQPGGSLGLSCVASGSIFRINAMAWYRQAPGKQRELVAEITAGGSTNYADSVKGRFTISVDNAWNTLYLQMNSLKVEDTAVYYCNLDHYTTWDRRSAYWGQGTQVTVSS", "values": [
      {"measurement": "IC50, HRG1-β1 induced pHER3, MCF-7", "setting": "hHER3 full length [3]", "value": "1.89e-08", "unit": "M"},
      {"measurement": "IC50, HRG1-β1 induced pHER3, MDA-MB468", "setting": "hHER3 full length [3]", "value": "1.07e-08", "unit": "M"},
      {"measurement": "IC50, HRG1-β1 induced pAkt, MCF-7", "setting": "hHER3 full length [4]", "value": "4.99e-08", "unit": "M"},
      {"measurement": "IC50, HRG1-β1 induced pERK1/2, MCF-7", "setting": "hHER3 full length [4]", "value": "1e-07", "unit": "M"},
      {"measurement": "IC50 pHER3 blocking, MCF7", "setting": "hHER3 full length [5]", "value": "2.49e-08", "unit": "M"},
      {"measurement": "EC50", "setting": "[6]", "value": 0.46, "unit": "nM"},
      {"measurement": "EC50", "setting": "[7]", "value": 0.43, "unit": "nM"},
      {"measurement": "koff", "setting": "[8]", "value": "0.0003 s⁻¹ and 0.00031 s⁻¹"},
      {"measurement": "% inhibition", "setting": "[9]", "value": 65.2, "unit": "%"},
      {"measurement": "IC50", "setting": "[9]", "value": 0.815, "unit": "nM"},
      {"measurement": "IC50", "setting": "[10]", "value": 5.5, "unit": "nM"},
      {"measurement": "% competition", "setting": "hHER3 full length [11]", "value": 0, "unit": "%"},
      {"measurement": "% competition", "setting": "hHER3 full length [12]", "value": 0, "unit": "%"},
      {"measurement": "% competition", "setting": "hHER3 full length [13]", "value": 56, "unit": "%"},
      {"measurement": "% competition", "setting": "hHER3 full length [14]", "value": 99, "unit": "%"},
      {"measurement": "% competition", "setting": "hHER3 full length [15]", "value": 6, "unit": "%"},
      {"measurement": "% competition", "setting": "hHER3 full length [16]", "value": 10, "unit": "%"},
      {"measurement": "koff", "setting": "[17]", "value": "0.00037 s⁻¹ and 0.00039 s⁻¹"},
      {"measurement": "Kd", "setting": "[18]", "value": 14, "unit": "nM"},
      {"measurement": "kon", "setting": "[18]", "value": 18000, "unit": "M⁻¹ s⁻¹"}
    ]}
  ]
}
